The values below come from article PMC12416549 (2024).

B1: E22L (designed binder)
chain: SMEEEVEKAAKEYEKKKKEAILKHLEKLKAKDKEAAERFLKELEEAAKEYAKDEAKTMSEEEAKRRAKKYKEKVLLSELSEEEQKEIKEAEEKLVRTILKYVEEAAK
B2: E42Q (designed binder)
chain: B1 chain with L22E, E42Q
B3: K88N (designed binder)
chain: B1 chain with L22E, K88N
B4: S77G (designed binder)
chain: B1 chain with L22E, S77G
B5: K27T (designed binder)
chain: B1 chain with L22E, K27T
B6: S1N (designed binder)
chain: B1 chain with S1N, L22E
B7: K16P (designed binder)
chain: B1 chain with K16P, L22E
B8: E72S (designed binder)
chain: B1 chain with L22E, E72S
B9: K64N (designed binder)
chain: B1 chain with L22E, K64N
B10: K68T (designed binder)
chain: B1 chain with L22E, K68T
B11: S80W (designed binder)
chain: B1 chain with L22E, S80W
B12: E45S (designed binder)
chain: B1 chain with L22E, E45S
B13: K68A (designed binder)
chain: B1 chain with L22E, K68A
B14: K33A (designed binder)
chain: B1 chain with L22E, K33A
B15: K93P (designed binder)
chain: B1 chain with L22E, K93P
B16: L79M (designed binder)
chain: B1 chain with L22E, L79M
B17: E81Q (designed binder)
chain: B1 chain with L22E, E81Q
B18: K52C (designed binder)
chain: B1 chain with L22E, K52C
B19: K100N (designed binder)
chain: B1 chain with L22E, K100N
B20: A10F (designed binder)
chain: B1 chain with A10F, L22E
B21: A47S (designed binder)
chain: B1 chain with L22E, A47S
B22: K71H (designed binder)
chain: B1 chain with L22E, K71H

Positions count from the first letter of the chain named. Names may count otherwise.

The target of this assay is T1, TNFR1 (Homo sapiens, UniProt P19438).
T1 chain: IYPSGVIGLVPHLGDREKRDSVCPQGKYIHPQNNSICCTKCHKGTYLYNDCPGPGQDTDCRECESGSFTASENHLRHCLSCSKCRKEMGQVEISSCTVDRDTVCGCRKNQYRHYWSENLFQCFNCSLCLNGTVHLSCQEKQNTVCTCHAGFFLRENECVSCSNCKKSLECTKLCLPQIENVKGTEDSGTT
The experiment in a line: yeast display SC50.
Take B1: the “apparent Kd (screen)” value was determined as 0.869 nM. In the case of B2 it was 9.41 nM; in that of B3, 0.446 nM; in that of B4, 2.48 nM. B5: the “apparent Kd (screen)” value stood at 0.956 nM. In the case of B6 it was 0.593 nM; in that of B7, 18.3 nM; in that of B8, 2.73 nM.

As to B9, the “apparent Kd (screen)” value is 0.653 nM. The same measure for B10: 1.4 nM.

Regarding B11, the “apparent Kd (screen)” value was 3 nM. In the case of B12 it was 2.73 nM; in that of B13, 1.05 nM. The same measure for B14: 0.49 nM.

For B15, the “apparent Kd (screen)” value came to 8.56 nM. The same measure for B16: 0.79 nM. The same measure for B17: 0.593 nM; for B18: 1.27 nM.

With B19, the “apparent Kd (screen)” value stood at 0.956 nM. In the case of B20 it was 10.4 nM. The same measure for B21: 2.05 nM; for B22: 0.593 nM.
